Assays:
[1] = molecular target: mouse cardiac TnI K118C mutation (mouse, UniProt P48787 1-211, K118C); assay: ELISA
[2] = molecular target: mouse cardiac TnI A117G mutation (mouse, UniProt P48787 1-211, A117G); assay: ELISA
mouse cardiac TnI A117G mutation, sequence (P48787 whole entry A117G): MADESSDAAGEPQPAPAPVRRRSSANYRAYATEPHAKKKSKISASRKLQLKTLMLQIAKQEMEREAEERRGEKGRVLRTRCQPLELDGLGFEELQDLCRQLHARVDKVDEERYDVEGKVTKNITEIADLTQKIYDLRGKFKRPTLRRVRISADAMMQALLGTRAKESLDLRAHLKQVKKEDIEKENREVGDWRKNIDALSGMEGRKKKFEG

mouse cardiac TnI K118C mutation, sequence (P48787 whole entry K118C): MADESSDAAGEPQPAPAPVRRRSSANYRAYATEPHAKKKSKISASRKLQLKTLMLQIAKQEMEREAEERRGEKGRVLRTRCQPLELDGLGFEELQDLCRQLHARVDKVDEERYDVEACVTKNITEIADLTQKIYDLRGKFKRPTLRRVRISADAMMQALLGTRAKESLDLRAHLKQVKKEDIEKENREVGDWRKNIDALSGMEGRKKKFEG

- binding result [1]: binds
- binding result [2]: binds
B1: Chicken fast TnC (natural protein)
chain: not shown

Reference: paper PMC4325132 (FEBS Open Bio, 2015)
